Results reported in US20180037644A1 (Pfizer, published 2018).
Where two headings read alike, the source gives them in different places.

B1: IL33-12 (antibody, human IgG1, kappa, V domains shown)
VH: EVQLVESGGGLVQPGGSLRLSCAASGFTFSSYWMYWVRQAPGKGLEWVASINNDGGNTYYLDSVKGRFTISRDNAKNSLYLQMNSLRAEDTAVYYCARGHYYYTSYSLGYWGQGTLVTVSS
VL: DIQMTQSPSSLSASVGDRVTITCKASQNINKHLDWYQQKPGKAPKLLIYFTNNLQTGVPSRFSGSGSGTDFTLTISSLQPEDFATYYCFQYNNGWTFGGGTKVEIKR
B2: IL33-45 (antibody, human IgG1, kappa, V domains shown)
VH: EVQLVESGGGLVQPGGSLRLSCAASGFTFSSYWMYWVRQAPGKGLEWVASITPDGGNTYYPDSVKGRFTISRDNAKNSLYLQMNSLRAEDTAVYYCARGHYYYTSYSLGYWGQGTLVTVSS
VL: DIQMTQSPSSLSASVGDRVTITCKASQNINKHLDWYQQKPGKAPKLLIYFTNNLQTGVPSRFSGSGSGTDFTLTISSLQPEDFATYYCFQYNNGWTFGGGTKVEIKR
B3: IL33-103 (antibody, human IgG1, kappa, V domains shown)
VH: EVQLVESGGGLVQPGGSLRLSCAASGFTFSSYWMYWVRQAPGKGLEWVAAITPNGGETYYPDSVKGRFTISRDNAKNSLYLQMNSLRAEDTAVYYCARGHYYYTSYSLGYWGQGTLVTVSS
VL: DIQMTQSPSSLSASVGDRVTITCKASQNINKHLDWYQQKPGKAPKLLIYFTNNLQTGVPSRFSGSGSGTDFTLTISSLQPEDFATYYCFQYNNGWTFGGGTKVEIKR
B4: IL33-117 (antibody, human IgG1, kappa, V domains shown)
VH: EVQLVESGGGLVQPGGSLRLSCAASGFTFSSYWMYWVRQAPGKGLEWVASITPNGGEDYYPDSVKGRFTISRDNAKNSLYLQMNSLRAEDTAVYYCARGHYYYTSYSLGYWGQGTLVTVSS
VL: DIQMTQSPSSLSASVGDRVTITCKASQNINKHLDWYQQKPGKAPKLLIYFTNNLQTGVPSRFSGSGSGTDFTLTISSLQPEDFATYYCFQYNNGWTFGGGTKVEIKR

Legend:
Experiment in all cases: cell-based or functional assay
human IL-33 (mm2) [1] = biological target: T1, human IL-33 (mm2) (human, UniProt O95760 112-270)
T1 chain: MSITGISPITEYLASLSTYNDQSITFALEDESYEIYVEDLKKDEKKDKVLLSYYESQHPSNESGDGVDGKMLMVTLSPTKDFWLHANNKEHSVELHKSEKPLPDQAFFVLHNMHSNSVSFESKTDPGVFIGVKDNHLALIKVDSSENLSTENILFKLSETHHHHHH

[2] = biological target: T2, cynomolgus monkey IL-33 (cys mut) (cynomolgus monkey)
T2 chain: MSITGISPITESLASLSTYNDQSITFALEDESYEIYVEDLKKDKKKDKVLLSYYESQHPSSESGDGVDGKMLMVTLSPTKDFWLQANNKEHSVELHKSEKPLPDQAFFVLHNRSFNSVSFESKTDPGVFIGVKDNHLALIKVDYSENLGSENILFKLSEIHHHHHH

human IL-33 (mm2) [3] = biological target: T1, human IL-33 (mm2)
[4] = biological target: T2, cynomolgus monkey IL-33 (cys mut)
human IL-33 (mm2) [5] = biological target: T1, human IL-33 (mm2)
human IL-33 WT (R&D) = biological target: T3, human IL-33 WT (R&D) (human, UniProt O95760 112-270)
T3 sequence: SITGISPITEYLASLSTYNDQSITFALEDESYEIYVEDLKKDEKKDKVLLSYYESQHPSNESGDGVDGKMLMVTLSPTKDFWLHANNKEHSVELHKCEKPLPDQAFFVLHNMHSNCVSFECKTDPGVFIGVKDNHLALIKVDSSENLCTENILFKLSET

[6] = biological target: T2, cynomolgus monkey IL-33 (cys mut)

| Binder | IC50, HEK293 ST2 NFkB (human IL-33 (mm2) [1]) | IC50, HEK293 ST2 NFkB [2] | IC50, HEK293 ST2 NFkB (human IL-33 (mm2) [3]) | IC50, HEK293 ST2 NFkB [4] | IC50, HEK293 ST2 NFkB mm2 (human IL-33 (mm2) [5]) | IC50, whole blood IFNγ (human IL-33 (mm2) [5]) | IC50, HEK293 ST2 NFkB WT IL-33 (human IL-33 WT (R&D)) | IC50, HEK293 ST2 NFkB cyno IL-33 [6] |
| --- | --- | --- | --- | --- | --- | --- | --- | --- |
| B1 | 0.144 nM | 3.46 nM | 0.14 nM | 0.943 nM | – | – | – | – |
| B2 | – | – | 0.325 nM | 0.535 nM | – | – | – | – |
| B3 | – | – | – | – | 0.028 nM | 0.104 nM | 0.178 nM | 0.07 nM |
| B4 | – | – | – | – | – | 0.106 nM | 0.155 nM | 0.052 nM |
